The RNAGym collection of RNA variant scans (doi:10.1073/pnas.2313332121)

B1: TPR t1 (parent)
chain: GACCAAUCUGCCCUCAGAGCUCGAGAACAUCUUCGGAUGCAGAGGAGGCAGGCUUCGGUGGCGCGAUAGCGCCAACGUCCUCAACCUCCAAUGCAUCCCACCACAUGAUGAUGCCUGAAGAGCCUUGGUUUUUUG

Variants of: B1
Assay: polymerase ribozyme fitness, log enrichment relative to wild type (log ratio); higher = more active; in vitro selection for triplet polymerase activity
Outline: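 Each subunit of a heterodimeric triplet polymerase ribozyme was mutagenized into a library by PCR, transcribed, and subjected to one round of in vitro selection, run in triplicate. Libraries were annealed with a biotinylated primer, the partner subunit and triplets, incubated frozen at −7 °C, and extended constructs were gel-excised, captured on streptavidin beads and recovered by RT-PCR. Input and output libraries were sequenced on Illumina, keeping genotypes with ≥10 input reads and ≥1 read per output. Fitness is log base 2 of genotype enrichment divided by wild-type enrichment, from inverse-variance-weighted replicate averages.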

Variant | polymerase ribozyme fitness (log ratio)
GACCAAUCUGGCCUCAGAGCUCGAGAACAUCUUCGUAUGCAGUGGAGGCAGGCUUCGGUGGUACGAUAGCGCCAACGUCCUCAACCUCCAAUGCAUCCCACCACAUGAUGAUGCUUGAAGAGCCAUGGUUUAUUG [C11G G36U A43U C62U G63A C115U U125A U132A] | -5.64
GACCAAUCUGCCCUCAGAGCCCGAGAACAUCUUCAGAUGCAGAGGAGGCAGGCUUCGGUGGCGCGAUAGCGCCAACGUCCUCAACCUCCAAUGCAUCCCACCACAUGAUGAUGCCUGAAGAGCCUUGGUAUUUUG [U21C G35A U130A] | -4.76
GACCAAUCUGCCCUCAGGGCUCGAGAACAUCUUCGGAUGCAGAGGAGGCAGGCUUCGGUGGCGCGAUAUCGCCAACGUCCCCAACCUCCAAUGCAUCCCACCACAUUAUGAUGCCUGAAGAGCCUUGGUUUUUUG [A18G G69U U81C G107U] | -3.65
GACCAAUCUGCCCUCAGAGCUCGAGAACAUCUUCGGAUGCAGAGGAGGCAGGCCUCGGUGGCGCGAUAGCGCAAACGUCCUCAACCUCCAAUGCAUCCCACCACAUGAUGAUGCCUGAAGUGCCUUGGUUUUUUG [U54C C73A A121U] | 2.33
GACCAAUCUGCCCUCAGAGCUCGAGAAUAUCUUCGGAUGCAGAGGAGGCAGGCUUCGGUGGCGCGAUAGCGCCAACGUCCUCAACUUCCAAUGCAUCCCACCACAUGAUGAUGCCUGAAGAGCCUUGGUUUUUUG [C28U C86U] | -2.31
GACCAAUCUGCCCUCAGAGCUCGAGAACAUAUUCGGUUGCAGAGGAGGCAGGCUUCGGUGGCGCGAUAGCGCCAACGUCCUCAACCUACAAUGCAUCCCACCACAUGAUGGGGCCUGAAGAGCCUUGGAUUUUUG [C31A A37U C88A A111G U112G U129A] | -7.12
GACCAAUCUGCCCUCAGAGCUCGAGAACAUCUUCGGAUGCAGAGGGGGCAGGCUUCGGUGGCGCGAUAGCGCCAACGUACUCAACCUCCAUUGCAUCCCACCACUUGAUGAUGCCUGAAGAGCAAUGGUUUUUUG [A46G C79A A91U A105U C124A U125A] | -6.73
GACCAAUCUGCCCUCAGAGCUCGAGAACAUCUUCGGAUGCAGAGCAGGCAGGCUUCGGUGGCGCGAUAGCGCCAACGUCCUCAACCUCCAAUGCAUCCCACAACAUGAUGAUGCCUGAAGAGCCUUGGUUUUUUG [G45C C102A] | -3.26
GACCAAUCUGCCCUCAGAGCUUGAGUACAUCUUCGGAUGCAGAGGAGGCAGGCGUCGGUGGCGCGAUAGCGCCAACGUCCUCAACCUCCAAUGCAUCCCACCACAUGAUGAUGCCUGUAGAGCCUUGGUUUUUUG [C22U A26U U54G A118U] | -4.35
GAGCAAUAUGCCCUCAGAGCUCGAGAACAUCUUCGGUUGCAGAGGAGGCAGGCUUCGGUGGCGCGAUAGCGCCAACGUCCUCAACCUCCAAUGCAUCCCACCACAUGAUGGUGCCUGAAAAGCCCUGGUUUUUUG [C3G C8A A37U A111G G120A U125C] | -3.58
GACCCAUUUGCCCUCAGAGCUCGAGAACAUCUUCGGAUGCAGAGGAGGCAGGCUUCGGUGGUGCGAUAGCGCCAACGUCCUCAACCUCCAAUGCAUCCCACCACAUGAUGAUGCCUGAAGAGCCUUGGUUUUUUG [A5C C8U C62U] | -0.266
GACCAAUCUGCCCUCAGAGCUCGAGAAUAUCUUCGGAUGCAGAGGAGGCAGGCUCCGGCGGCGCGAUAGCGCCAACGUCCUCAACCUCCAAUGCAUCCCACCACAUGAUGAUGCCUGAAGAGCCUUGGUUUUUUG [C28U U55C U59C] | -3.17
GACCAAUCUGCCCUCAGAGCUCGAGAACAUCUUCGGAUGCAGAGGAGGCAGGCUUCGGUGGCGCGAUAGCGCCAACGUCCUCAACCUCCAAUGCAUCCCACCACAUGAUGAUGUCUGACGAGCCUUGGUUUUUUG [C114U A119C] | -6.28
GACCAAUCUGCCCUCAGAGCUCGAGAACAUCUUCGGAUGCAGAGGAGGCAGGCUUCGGUGGCGCGAUAGCGCAAACGUCCUCAACCUCCAAUGCAUCCCACCACAUGAUAAUGCCUGAAAAGCCUUGGUUUUUUG [C73A G110A G120A] | -1.61
GACCAAUCUGCCCUCAGAGCUCGAGAACAUCUUCGGAUGCAGAGGAAGCAGGCUUCGGUGGCGCGAUAGCGCCAACGUCCUCAACCUCCAACGCAUCCCACCACAUGAUGAUGCCUGAAGAGCCUUAGUUUUUUG [G47A U92C G127A] | -5.01
GACCAAUCUGCCCUCAGAGCUCGAGAACAUCUUCGGAUGCAGAGGAGGCAGGCUUCGGUGGCGCGAUAGCGCCAACGUCAUCAACCUCCAGUGCAUCCCACCACAUGAUGAUGCCUGAAUAGCCUUGGUUUUUUG [C80A A91G G120U] | -5.41
GACCAAUCUGCCCUCAGAGCUCGAGAACAUCUUCGGAUACAGAGGAGGCAGGCUUCGGUGGCGCGAUAGCGCCUACGUCCUAAACCUCCAAUGCAUCCCACCACAUGAUGAUGCCUGAAGAGCCUUGGUUUUUUG [G39A A74U C82A] | -0.903
GACCAAUCUGCCCUCAGAGCUCGAGAACAUCUUCGGAUGCAGAGGAGCCAGGCUUCGGUAGCGCGAUAGCGCCAACGUCCUCAACCUCCAAUGCAUCCCACCACAUGAUGAUGCCUGAAGAGCCUUGGUUUUUUG [G48C G60A] | -1.1
GACCAAUCUGCCCUCAGAGCUCGAGAACAUCUUCGGAUGCAGGGGAGGCAGGCUUCGGUGGCGCGAUAGCGCCAACGUCCUCAACCUCCAAUGCAUCCCACCACAUGAUGAUGCCUGAAGAGCCUUGUUUUUUUG [A43G G128U] | -4.43
GACCAAUCUACCCUCAGAGCUCGAGAACAUCUUCGGAUGCAGAGGAGGCAGGCUUCGGUGGCGCGAUAGCGCCAAUGUCCUCAACCUCCAAUGCAUCCCACCACAUGAUCAUGCCUGAAGAGCCUUGGUUUUUUG [G10A C76U G110C] | -5.64
GACCAAUCUGCCCUCAGAGCUCGAGAACAUCUUCGGAUGCAGCGGAGGCAGGCUUCGAUGGCGCGAUAGCGCCAACGACCUCAACCUCCAAUGCAUCCCACCACAUGAUGAUGACUGAAGAGCCUUGGUUUUUUG [A43C G58A U78A C114A] | -5.29

Variant | polymerase ribozyme fitness (log ratio)
GACCAAUCUGCCCUCAGAGAUCGAGAACAUCUUCGGAUGCAGAGGAGGCAGGCUUCGGUGGCGCGAUAGCGGCAACGUCCUCAACCUCCAAUGCUUCCCACCACAUGAUGAUCCCUGAAGAGCCUUGGUUUUUUG [C20A C72G A95U G113C] | -6.92
GACCAAUCUGCCCUCAGAGCUCGAGAACAUCUUCGGAUGCAGAGGAGGCAGGCUUCGGUGGCGCGAUAGCGCCAACGUCCUCAACCUCCAAUGCAUCCAACCCAAUGAUGAUGCCUGAAGAGCCUUGGUUUUUUG [C99A A103C C104A] | -4.54
GACCAAUCUGCCCUCAGAGCUCGAGAACAUCUUCGGAUGCAGAGGAGGCAGACUUCGGUGGCGCGAUAGCGCCUACGUCUUCAACCUCCAAUGCAUCCCACCACAUGAUGAUGCCUGAAGAGCCUUGGUUUUUUG [G52A A74U C80U] | -1.78
GACCAAUUUGCCCUCAGAGCUCGAGAACAUCUUCGGAUGCAGAGGAGGCAGGCUUCGGUGCCGCGAUAGCGCCAACGUCCUCAACCUCCAAUGCAUCCCACCACAUGAUGAUGCCUGAAGAGCCUUGGUUUUUUG [C8U G61C] | -1.18
GACCAAUCUGCCCUCAGAGCUCGAGAACAUCUUCGGAUGCAGAGGAGGCAGGCUUCGGUGGCGCGAUAGCGGCAACGUCCUCAACCUCCAAUGCAUUCCACCACAUGAUGAUGCCUGAAGAGCCUUGGUUUUUUG [C72G C97U] | -1.05
GACCAAUCUGCCCUCAGAGCUCGAGAACAUCUUCGGAUGCAGAGGAGGCAGGCUUCGGUGGCGCGAUAGCUCCAACGUCCUCAACCUCCAAUGCAUCCCACCACAUGAUGAUGUCUGAAGAGCCUUGGUUUUUUG [G71U C114U] | -1.41
GACGAAUCUGCCCUCAGAGCUCGAGAACAUCUUCGGAUGCAGAGGAGGCAGGCUUCGGUGGCGCGGUAGCGUCAACGUCUUCAACCUCCAAUGCAUCCCACCACAUGAUGAUGCCUGAAGAGACUUGGUUUUUUG [C4G A66G C72U C80U C123A] | -2.88
GACCAAUCUGCUCUCAGAGCUCGAGUACAUCUUCGGAUCCAGAGGAGGCAGGCUUCGGUGGCGCGAUAGCGCCAACGUCCUCAACCUCCAAUGCAUCCCACCACAUGAUAAUGCCUGAAGAGCCUUGGUUUUUUG [C12U A26U G39C G110A] | -5.25
GACCAAUCUGCCCUCAGAGCUCGAGAACAUCUUCGGAUGCAGACGAGGCAGGCUUCGGUGGCGCGAUAGCUCCAACGUCCUCAACCUCCAAUGCAUCCCACCACAUGAUGAUGCCUGAAGAGCCUUGGUUUUUUG [G44C G71U] | -2.2
GACCAAUCUGCCCUCAGAGCUCGAGAACGUCUUCGGAUGCAGAGGAGGUAGGCUUCGGUGACGCGAUAGCGCCAACGUCCUCAAUCUCCAAUGCAUCCCACCACAUGAUGAUGCCUGAAGAGCCUUGGUUUUUUG [A29G C49U G61A C85U] | -1.74
GACCAAUUUGCCCUCAGAGCUCGAGAACAUCUUAUGAUGCAGAGGAGGCAGGCUUCGGUGGCUCGAUAGCGCCAACGUCCUUAACCUCCAAUGCAUCCCACCACAUGAUGAUGCCUGAAAAGCCUUGGUAUUUUG [C8U C34A G35U G63U C82U G120A U130A] | -4.37
GACCAAUCUGCCCUCGGAGCUCGAGAACAUCUUCGGAUGCAGAGGAGGCUGGCUUCGGUGGCGCGAUAGCGCCAACGUCCUCAACCUCCAAUGCAUCCCACCACAUGAUGAUGCCUGAAGAGCCUUGGUUUUUUG [A16G A50U] | -2.5
GACCAAUCUGCCCUCAGAGCUCGAGAACAUCUUCGGAUGCAGAGGAGGCAGGCUUCGGUAGCGCGAUAGCGCCAACGUCCUCAACCUCCAAUGCAUCCCACCACAUGAUGCUGCCUGAAGAGACUUGGUUUUUUG [G60A A111C C123A] | -1.91
GACCAAGCAGCCCUCAGAGCUCGAGAACAUCUUCGGAUGCAGAGGAGGCAGGCUUCGGUUGCGCGAUAGCGCCAACGUCCUUAACCUCCAAUGCAUCCCACCACAUGAUGAUGCCUGAAGAGCCUUGGUUUUUUG [U7G U9A G60U C82U] | 0.122
GACCAAUCUGCCCUUAGAGCUCGAGAACAUCUUCGGAUGCAGAGGAGGCAGGCUUCGGUGGCGCGAUAGCGCCAACGUCCUCAUCCACCAAUGCAUCCCACCACGUGAUGAUUCCUGAAGAGCCUUGGUUUUUUG [C15U A84U U87A A105G G113U] | -5.89
GACCAAUCUGCCCUCAUAGCUCGAGAACAUCUUCGGAUGCAGUGGAGGCAGGCUUCGGUGGCGCGAUAGCGCCAACGUCCUCAACCUCCAAUGCAUCCCACCACAUGAUGAUGCCUGAUGAGCCUUGGUUUUUUG [G17U A43U A119U] | -5.06
GACCAAUCUGCCCUCAGAGCUCGAGAACACCUUCGGAUGCAGAGGAGGCAGGCUUAGGUGGCGCGAUAGCGCCAACGUCCUUAACCUCCAAUGUAUCCCACCACAUGAUGAUCCCUGAAGAGCCUUGGUUUUUUG [U30C C56A C82U C94U G113C] | -5.15
GACCAAUCUGCCCUCAGAGCUCGAGAACAUCUUCGGAUGCAGAGGAGGCCGGCUUCGGUGCCGCGAUAGCGCCAACGUCCUCAACCUCCAAUGCAUCCCACCACAUGAUGAUGCCUGAAGAGCCUUAGUUUUUUG [A50C G61C G127A] | -5.03
GACCAAUCAGCCCUCAGAGCUCGAGAACAUCUUCGGAUGCAGAGGAGGCAGGCUUCGGUGGCGCGAUAGCGCCAACGUCCUCAACCUCGAAUGCAUCCCACCACAUGAUGAUGCCUGAAGAGCCUUGGUUUUUUG [U9A C89G] | -2.53
GACCAAUCUGCCCUCAGGGCUCGAGAACAUCUUGGGAUGCAGAGGAGGCAGGCUUCGGUGGCGCGAUAGAGCCAACGUCCUCAACCUCCAAUGCAUCCCACCACAUGAAGAUGCCUGAAGAGCCUUGAUUUUUUG [A18G C34G C70A U109A G128A] | -5.92
GACCAAUCUGCCCUCAGAGCUCGAGAACAUCUUCGGAUGCAUAGGAGGCAGGCUUCGGUGGCGCGAUAGCGCCAACGUCCUCAACCUUCAAUGCAUCCCACCACAUGAUGAUUCCUGAAGUGCCUUGGUUGUUUG [G42U C88U G113U A121U U131G] | -1.8
